What is called Kd is the equilibrium constant for the complex coming apart. Lower therefore signals tighter binding.

The record followed here is paper PMC10922792 (Journal of molecular biology, 2024).

The experiment has as its target T1, hPASK PAS-A domain (residues 131–237) (human, UniProt Q96RG2 131-237, uniformly 15N-labeled).
T1 sequence (looked up): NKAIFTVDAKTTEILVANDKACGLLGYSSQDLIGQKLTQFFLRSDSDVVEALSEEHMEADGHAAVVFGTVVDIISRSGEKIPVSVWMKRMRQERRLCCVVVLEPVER
The experiment can be described thus: NMR titration.

On to MRGAAGLQREIQEGAYSGSCYHRDGL (peptide, UniProt Q96RG2 879-904, looked up) [PIM peptide (PASK AA 879–904)], for which the dissociation constant Kd came out at 2400 µM.
